Columns and labels:
HeLa Kyoto [1] = assay: solubility change mitosis vs G1/S (difference of NP-40 vs SDS log2 ratios) (log2 ratio difference); higher = more soluble in mitosis
HeLa Kyoto [2] = assay: melting temperature (median over replicates), in situ; higher = more thermally stable
HeLa Kyoto [3] = assay: thermal stability score vs G1/S (z-score of summed log2 fold changes over temperatures); higher = more thermally stable than in G1/S
[4] = cell cycle stage: early G1 (4.5 h after nocodazole release)
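Throughout, for melting temperature (median over replicates), in situ: HeLa Kyoto cells synchronized by double thymidine or nocodazole block, proteins quantified by TMT10plex mass spectrometry, three independent biological replicates.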
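Throughout, for solubility change mitosis vs G1/S (difference of NP-40 vs SDS log2 ratios): synchronized HeLa Kyoto cells (double thymidine block for G1/S, nocodazole release for mitosis), protein amounts in NP-40 versus SDS lysates quantified by mass spectrometry, three biological replicates.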
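Throughout, for thermal stability score vs G1/S (z-score of summed log2 fold changes over temperatures): synchronized HeLa Kyoto cells, proteins quantified by TMT10plex mass spectrometry, three biological replicates, mitosis taken 0.5 h after nocodazole release, G1/S directly after double thymidine block.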

Substance	solubility change mitosis (log2) (HeLa Kyoto [1])	also measured
MRPS9	-0.0743	
MRPS14	0.165	
MRPS18B	0.111	
MRPS25	0.166	
MRPS30	-0.14	
MSEGDSVGESVHGKPSVVYRFFTRLGQIYQSWLDKSTPYTAVRWVVTLGLSFVYMIRVYLLQGWYIVTYALGIYHLNLFIAFLSPKVDPSLMEDSDDGPSLPTKQNEEFRPFIRRLPEFKFWHAATKGILVAMVCTFFDAFNVPVFWPILVMYFIMLFCITMKRQIKHMIKYRYIPFTHGKRRYRGKEDAGKAFAS [RER1]		melting temperature (HeLa Kyoto [2]; cell cycle stage: G1/S): 55.1 °C; melting temperature (HeLa Kyoto [2]; cell cycle stage: mitosis): 55.5 °C; thermal stability score (HeLa Kyoto [3]; [4]): -0.257; thermal stability score (HeLa Kyoto [3]; cell cycle stage: mitosis): -1.81
MSEKSVEAAAELSAKDLKEKKEKVEEKASRKERKKEVVEEEENGAEEEEEETAEDGEEEDEGEEEDEEEEEEDDEGPALKRAAEEEDEADPKRQKTENGASA [PTMS]		melting temperature (HeLa Kyoto [2]; cell cycle stage: G1/S): 55.5 °C; melting temperature (HeLa Kyoto [2]; cell cycle stage: mitosis): 51.9 °C; thermal stability score (HeLa Kyoto [3]; [4]): -1.16; thermal stability score (HeLa Kyoto [3]; cell cycle stage: mitosis): -2.62
MSRLLPLLRSRTARSLRPGPAAAAAPRPPSWCCCGRGLLALAPPGGLPGGPRRLGTHPKKEPMEALNTAQGARDFIYSLHSTERSCLLKELHRFESIAIAQEKLEAPPPTPGQLRYVFIHNAIPFIGFGFLDNAIMIVAGTHIEMSIGIILGISTMAAAALGNLVSDLAGLGLAGYVEALASRLGLSIPDLTPKQVDMWQTRLSTHLGKAVGVTIGCILGMFPLIFFGGGEEDEKLETKS [TMEM65]		melting temperature (HeLa Kyoto [2]; cell cycle stage: G1/S): 55.5 °C; melting temperature (HeLa Kyoto [2]; cell cycle stage: mitosis): 55.9 °C; thermal stability score (HeLa Kyoto [3]; [4]): 0.563; thermal stability score (HeLa Kyoto [3]; cell cycle stage: mitosis): 0.332
MTSALENYINRTVAVITSDGRMIVGTLKGFDQTINLILDESHERVFSSSQGVEQVVLGLYIVRGDNVAVIGEIDEETDSALDLGNIRAEPLNSVAH [LSM8]		melting temperature (HeLa Kyoto [2]; cell cycle stage: G1/S): 57.1 °C; melting temperature (HeLa Kyoto [2]; cell cycle stage: mitosis): 57.5 °C; thermal stability score (HeLa Kyoto [3]; [4]): -1.46; thermal stability score (HeLa Kyoto [3]; cell cycle stage: mitosis): -3.54
MVAPVWYLVAAALLVGFILFLTRSRGRAASAGQEPLHNEELAGAGRVAQPGPLEPEEPRAGGRPRRRRDLGSRLQAQRRAQRVAWAEADENEEEAVILAQEEEGVEKPAETHLSGKIGAKKLRKLEEKQARKAQREAEEAEREERKRLESQREAEWKKEEERLRLEEEQKEEEERKAREEQAQREHEEYLKLKEAFVVEEEGVGETMTEEQSQSFLTEFINYIKQSKVVLLEDLASQVGLRTQDTINRIQDLLAEGTITGVIDDRGKFIYITPEELAAVANFIRQRGRVSIAELAQASNSLIAWGRESPAQAPA [DDRGK1]		melting temperature (HeLa Kyoto [2]; cell cycle stage: G1/S): 52.9 °C; melting temperature (HeLa Kyoto [2]; cell cycle stage: mitosis): 52.9 °C; thermal stability score (HeLa Kyoto [3]; [4]): -0.767; thermal stability score (HeLa Kyoto [3]; cell cycle stage: mitosis): -0.701
MVPGAAGWCCLVLWLPACVAAHGFRIHDYLYFQVLSPGDIRYIFTATPAKDFGGIFHTRYEQIHLVPAEPPEACGELSNGFFIQDQIALVERGGCSFLSKTRVVQEHGGRAVIISDNAVDNDSFYVEMIQDSTQRTADIPALFLLGRDGYMIRRSLEQHGLPWAIISIPVNVTSIPTFELLQPPWTFW [PRADC1]		melting temperature (HeLa Kyoto [2]; cell cycle stage: G1/S): 53.8 °C; melting temperature (HeLa Kyoto [2]; cell cycle stage: mitosis): 52.7 °C; thermal stability score (HeLa Kyoto [3]; [4]): -2.33; thermal stability score (HeLa Kyoto [3]; cell cycle stage: mitosis): -2.03
MWRWIRQQLGFDPPHQSDTRTIYVANRFPQNGLYTPQKFIDNRIISSKYTVWNFVPKNLFEQFRRVANFYFLIIFLVQLMIDTPTSPVTSGLPLFFVITVTAIKQGYEDWLRHNSDNEVNGAPVYVVRSGGLVKTRSKNIRVGDIVRIAKDEIFPADLVLLSSDRLDGSCHVTTASLDGETNLKTHVAVPETALLQTVANLDTLVAVIECQQPEADLYRFMGRMIITQQMEEIVRPLGPESLLLRGARLKNTKEIFGVAVYTGMETKMALNYKSKSQKRSAVEKSMNTFLIIYLVILISEAVISTILKYTWQAEEKWDEPWYNQKTEHQRNSSKILRFISDFLAFLVLYNFIIPISLYVTVEMQKFLGSFFIGWDLDLYHEESDQKAQVNTSDLNEELGQVEYVFTDKTGTLTENEMQFRECSINGMKYQEINGRLVPEGPTPDSSEGNLSYLSSLSHLNNLSHLTTSSSFRTSPENETELIKEHDLFFKAVSLCHTVQISNVQTDCTGDGPWQSNLAPSQLEYYASSPDEKALVEAAARIGIVFIGNSEETMEVKTLGKLERYKLLHILEFDSDRRRMSVIVQAPSGEKLLFAKGAESSILPKCIGGEIEKTRIHVDEFALKGLRTLCIAYRKFTSKEYEEIDKRIFEARTALQQREEKLAAVFQFIEKDLILLGATAVEDRLQDKVRETIEALRMAGIKVWVLTGDKHETAVSVSLSCGHFHRTMNILELINQKSDSECAEQLRQLARRITEDHVIQHGLVVDGTSLSLALREHEKLFMEVCRNCSAVLCCRMAPLQKAKVIRLIKISPEKPITLAVGDGANDVSMIQEAHVGIGIMGKEGRQAARNSDYAIARFKFLSKLLFVHGHFYYIRIATLVQYFFYKNVCFITPQFLYQFYCLFSQQTLYDSVYLTLYNICFTSLPILIYSLLEQHVDPHVLQNKPTLYRDISKNRLLSIKTFLYWTILGFSHAFIFFFGSYLLIGKDTSLLGNGQMFGNWTFGTLVFTVMVITVTVKMALETHFWTWINHLVTWGSIIFYFVFSLFYGGILWPFLGSQNMYFVFIQLLSSGSAWFAIILMVVTCLFLDIIKKVFDRHLHPTSTEKAQLTETNAGIKCLDSMCCFPEGEAACASVGRMLERVIGRCSPTHISRSWSASDPFYTNDRSILTLSTMDSSTC [ATP11B]		melting temperature (HeLa Kyoto [2]; cell cycle stage: G1/S): 57.4 °C; melting temperature (HeLa Kyoto [2]; cell cycle stage: mitosis): 55.5 °C; thermal stability score (HeLa Kyoto [3]; [4]): -2.25; thermal stability score (HeLa Kyoto [3]; cell cycle stage: mitosis): -0.924
NCK1	-0.221	
NCKIPSD	-0.148	
NT5C3A	-0.0945	
NUDT1	-0.22	
POLB	-0.0195	
POLR2B	0.175	

Substance	solubility change mitosis (log2) (HeLa Kyoto [1])	also measured
POLR2E	0.311	
PTCD3	-0.182	
RAC1	-0.0656	
RPL4	0.805	
RPL13	0.759	
RPL23	0.476	
RPL27	0.573	
RPL29	1.68	
RPL30	0.776	
RPL32	0.91	
RPL35A	0.707	
RPL37	1.29	
RPS3A	0.538	
RPS4X	0.489	
RPS5	0.452	
RPS10	0.59	
RPS21	0.45	
